Measurements: patent US20260348977 (published 2026)

Legend:
[1] = molecular target: T1, standard/selection peptide SLNPDTGLWE (CILP-M) (human); assay: competition (chemiluminescence ELISA, 20C, pH 7.4)
T1 chain: SLNPDTGLWE

non-sense peptide = molecular target: T2, non-sense peptide; assay: competition (chemiluminescence ELISA)
T2 chain: DSGPEYADVV

truncated peptide = molecular target: T3, truncated peptide (human); assay: competition (chemiluminescence ELISA)
T3 chain: LNPDTGLWE

elongated peptide = molecular target: T4, elongated peptide (human); assay: competition (chemiluminescence ELISA)
T4 chain: WSLNPDTGLWE

B1: NB326 #76 13B5-1C6-2C4 (antibody, V domains shown)
VH: QVQLQQSGPELVKPGASVRISCKASGYTFTNYYIHWVKQRPGQGLEWIGWISPGIVDTEYNEKFKNKATLTADKSSRTAYMQLSSLTSEDSAVYFCARRSAGSYGDFDYWGQGTTLTVSS
VL: DIVMTQSQKFMSTSVGDRVSVTCKASQNVGTDVVWYQQRPGQSPKALMYSASYRYSGVPDRFTGSGSGTDFTLTISNVQSEDLAEYFCQHYDNYPLTFGAGTKLELK
**Q.** How did the IC50 [1] turn out when B1 was run?
**A.** 2 ng/mL

**Q.** Does B1 bind (non-sense peptide)?
**A.** no binding

**Q.** Does B1 bind (truncated peptide)?
**A.** no binding

**Q.** Does B1 bind (elongated peptide)?
**A.** no binding
